Target: unidentified GPNMB ligand(s) on the surface of SVEC4-10 cells
Assay: flow cytometry, soluble moGPNMB-Fc on SVEC4-10 cells, PE anti-IgG Fc secondary; thin-line histogram shifted right with a tail to about 10^4, thick-line control histogram near 0

B1: soluble mouse GPNMB-Fc polypeptide (Fc of human IgG1 or mouse IgG2A, not specified for the assay) (Fc fusion, UniProt Q99P91 23-502, looked up, not shown: a dimerising Fc or GST)
chain: KRFRDVLGHEQYPDHMREHNQLRGWSSDENEWDEHLYPVWRRGDGRWKDSWEGGRVQAVLTSDSPALVGSNITFVVNLVFPRCQKEDANGNIVYEKNCRNDLGLTSDLHVYNWTAGADDGDWEDGTSRSQHLRFPDRRPFPRPHGWKKWSFVYVFHTLGQYFQKLGRCSARVSINTVNLTAGPQVMEVTVFRRYGRAYIPISKVKDVYVITDQIPVFVTMSQKNDRNLSDEIFLRDLPIVFDVLIHDPSHFLNDSAISYKWNFGDNTGLFVSNNHTLNHTYVLNGTFNLNLTVQTAVPGPCPPPSPSTPPPPSTPPSPPPSPLPTLSTPSPSLMPTGYKSMELSDISNENCRINRYGYFRATITIVEGILEVSIMQIADVPMPTPQPANSLMDFTVTCKGATPMEACTIISDPTCQIAQNRVCSPVAVDGLCLLSVRRAFNGSGTYCVNFTLGDDASLALTSTLISIPGKDPDSPLRAVN
A PE-A subset (share of cells in the drawn gate, unit not given) of 70.1 was found for B1 in this work.
